Measured values as given in patent publication US20080076824A1, “Compounds That Inhibit Replication Of Human Immunodeficiency Virus” (priority 2004, published 2008).

Tests used:
Format in all cases: biochemical
[1] = substrate: NCC(=O)N1CCC[C@H]1C(=O)NCC(N)=O; test: Conversion of GPG-NH2 to GP-OH and G-NH2 by purified CD26; settings: other: purified CD26; pH 3.5
Protocol: In some experiments, approximately, 100 μM GPG-NH2 was exposed to 25 units/l of purified CD26 and the mixture was incubated for up to 400 minutes at room temperature. The lymphocyte surface glycoprotein CD26/dipeptidylpeptidase IV was purified as described before. (See De Meester, J. Immunol. Methods, 189:99-105 (1996), herein expressly incorporated by reference in its entirety). At different time points, an aliquot of the reaction mixture was withdrawn and analyzed on an electrospray ion trap mass spectrometer (Esquire, Bruker, Bremen, Germany). The appearance of the dipeptide GP-OH upon release from the amino terminal end of the GPG-NH2 molecule, as well as, the disappearance of intact GPG-NH2 from the reaction mixture was determined and monitored by electrospray ion trap mass spectometric analysis at different time points (See FIG. 3). Under these experimental conditions, CD26 released GP-OH in a time-dependent manner from GPG-NH2, and virtually completely converted GPG-NH2 to GP-OH and G-NH2 within 4 to 6 hrs of the reaction.
Next, the conversion of radiolabeled [^14C]GPG-NH2 to [^14C]G-NH2 by purified CD26, fetal bovine serum (FBS), human serum (HS) and CEM cell suspensions was analyzed. […] A variety of these [^14C]GPG-NH2 concentrations were exposed to purified CD26, FBS, HS and CEM cell suspensions and the conversion to G-NH2 was analyzed. […]

[2] = substrate: NCC(=O)N1CCC[C@H]1C(=O)NCC(N)=O; test: Conversion of [14C]GPG-NH2 to G-NH2 by human serum; settings: other: derived from GPG-NH2 disappearance curves; pH 3.5
Protocol: (§1) Next, the conversion of radiolabeled [^14C]GPG-NH2 to [^14C]G-NH2 by purified CD26, fetal bovine serum (FBS), human serum (HS) and CEM cell suspensions was analyzed. Radiolabeled [^14C]GPG-NH2 (radiospecificity: 58 mCi/mmol), in which the radiolabeled carbon is located in the main chain carbon of the glycine at the carboxylic acid end of the tripeptide, and [^14C]G-NH2 (radiospecificity: 56 mCi/mmol) in which carbon-2 was radiolabeled were synthesized by Amersham Pharmacia Biotech (Buckinghamshire, England). A variety of these [^14C]GPG-NH2 concentrations were exposed to purified CD26, FBS, HS and CEM cell suspensions and the conversion to G-NH2 was analyzed.
(§2) In another set of experiments, after one hour of exposure, disappearance of intact [^14C]GPG-NH2 was determined by HPLC analysis, as described above, using a cation-exchange Partisphere SCX column and a sodium phosphate buffer gradient at pH 3.5. GPG-NH2 was well-separated from G-NH2 (retention times: 25-27 min and 15-17 min, respectively). […] The GPG-NH2 conversion by the CEM cell suspensions proceeded linearly up to 1.5 mM. Only at higher GPG-NH2 concentrations (e.g., 3 and 5.4 mM), did the conversion curve for the CEM cell suspensions start to level-off slightly.

[3] = substrate: NCC(=O)N1CCC[C@H]1C(=O)NCC(N)=O; test: Conversion of [14C]GPG-NH2 to G-NH2 by fetal bovine serum; settings: other: derived from GPG-NH2 disappearance curves; pH 3.5
Protocol: as §1, §2

B1: CD26/dipeptidylpeptidase IV (Homo sapiens) (protein)
chain: MKTPWKVLLGLLGAAALVTIITVPVVLLNKGTDDATADSRKTYTLTDYLKNTYRLKLYSLRWISDHEYLYKQENNILVFNAEYGNSSVFLENSTFDEFGHSINDYSISPDGQFILLEYNYVKQWRHSYTASYDIYDLNKRQLITEERIPNNTQWVTWSPVGHKLAYVWNNDIYVKIEPNLPSYRITWTGKEDIIYNGITDWVYEEEVFSAYSALWWSPNGTFLAYAQFNDTEVPLIEYSFYSDESLQYPKTVRVPYPKAGAVNPTVKFFVVNTDSLSSVTNATSIQITAPASMLIGDHYLCDVTWATQERISLQWLRRIQNYSVMDICDYDESSGRWNCLVARQHIEMSTTGWVGRFRPSEPHFTLDGNSFYKIISNEEGYRHICYFQIDKKDCTFITKGTWEVIGIEALTSDYLYYISNEYKGMPGGRNLYKIQLSDYTKVTCLSCELNPERCQYYSVSFSKEAKYYQLRCSGPGLPLYTLHSSVNDKGLRVLEDNSALDKMLQNVQMPSKKLDFIILNETKFWYQMILPPHFDKSKKYPLLLDVYAGPCSQKADTVFRLNWATYLASTENIIVASFDGRGSGYQGDKIMHAINRRLGTFEVEDQIEAARQFSKMGFVDNKRIAIWGWSYGGYVTSMVLGSGSGVFKCGIAVAPVSRWEYYDSVYTERYMGLPTPEDNLDHYRNSTVMSRAENFKQVEYLLIHGTADDNVHFQQSAQISKALVDVGVDFQAMWYTDEDHGIASSTAHQHIYTHMSHFIKQCFSLP
notes: made in house; by own knowledge a natural human source (seminal plasma), not recombinant
For B1, which Km [1] is on record?
The Km was 183 µM.

B2: dipeptidylpeptidase activity associated with HS (Homo sapiens) (protein)
chain: SRKTYTLTDYLKNTYRLKLYSLRWISDHEYLYKQENNILVFNAEYGNSSVFLENSTFDEFGHSINDYSISPDGQFILLEYNYVKQWRHSYTASYDIYDLNKRQLITEERIPNNTQWVTWSPVGHKLAYVWNNDIYVKIEPNLPSYRITWTGKEDIIYNGITDWVYEEEVFSAYSALWWSPNGTFLAYAQFNDTEVPLIEYSFYSDESLQYPKTVRVPYPKAGAVNPTVKFFVVNTDSLSSVTNATSIQITAPASMLIGDHYLCDVTWATQERISLQWLRRIQNYSVMDICDYDESSGRWNCLVARQHIEMSTTGWVGRFRPSEPHFTLDGNSFYKIISNEEGYRHICYFQIDKKDCTFITKGTWEVIGIEALTSDYLYYISNEYKGMPGGRNLYKIQLSDYTKVTCLSCELNPERCQYYSVSFSKEAKYYQLRCSGPGLPLYTLHSSVNDKGLRVLEDNSALDKMLQNVQMPSKKLDFIILNETKFWYQMILPPHFDKSKKYPLLLDVYAGPCSQKADTVFRLNWATYLASTENIIVASFDGRGSGYQGDKIMHAINRRLGTFEVEDQIEAARQFSKMGFVDNKRIAIWGWSYGGYVTSMVLGSGSGVFKCGIAVAPVSRWEYYDSVYTERYMGLPTPEDNLDHYRNSTVMSRAENFKQVEYLLIHGTADDNVHFQQSAQISKALVDVGVDFQAMWYTDEDHGIASSTAHQHIYTHMSHFIKQCFSLP
notes: from tissue; host or cells: human serum
How did the Km [2] turn out when B2 was run?
The Km was 450 µM.

B3: dipeptidylpeptidase activity associated with FBS (Bos taurus) (protein)
chain: SRRTYTLADYLKNTFRMKFYNLRWVSDHEYLYKQENNILLFNAEYGNSSIFLENSTFDEFGHSINDYSVSPDRQYILFEYNYVKQWRHSYTASYDIYDLNKRQLITEERIPNNTQWITWSSVGHKLAYVWNNDIYVKNEPNSPSQRITWTGKKDVIYNGITDWVYEEEVFSAYSALWWSPNSTFLAYAQFNDTEVPLIEYSFYSDESLQYPKTVKIPYPKAGAVNPTIKFFVVNISSLSPNINATSQQIVPPGSVLIGDHYLCDVTWVTEERISLQWLRRIQNYSIMDICDYDRSTGRWISSVGRQHIEISTTGWVGRFRPAEPHFTSDGNSFYKIISNEEGYKHICHFQTDKRNCTFITKGAWEVIGIEALTSDYLYYISNEYKGMPGARNLYKIQLNDYTKVTCLSCELNPDRCQYYSVSFSQEAKYYQLRCSGPGLPLYTLHNSNNDKELRVLENNSDLDQVLQDVQMPSKKLDFIHLHGTKFWYQMILPPHFDKSKKYPLLLEVYAGPCSQKADAIFRLNWATYLASTENIIVASFDGRGSGYQGDKIMHAINRRLGTFEVEDQIEATRQFSKMGFVDDKRIAIWGWSYGGYVTSMVLGAGSGVFKCGIAVAPVSKWEYYDSVYTERYMGLPTPEDNLDSYRNSTVMSRAENFKQVEYLLIHGTADDNVHFQQSAQISKALVDAGVDFQSMWYTDEDHGIASSTAHQHIYTHMSHFLKQCFSLL
notes: from tissue; host or cells: fetal bovine serum
For B3, which Km [3] is on record?
The Km was 1400 µM.
